Data published in patent publication US20110250284A1, “Nanoparticles for Use as Synthetic Platelets and Therapeutic Agent Delivery Vehicles” (priority 2008, published 2011).

System: NSCs
Experiment: NSC behavior cultured near hydrogels with CNTF delivery component
Assay type: cell-based
Conditions: seven days
Experimental: NSCs were positive for green fluorescent protein (GFP) and were maintained in high glucose DMEM/F12 (1:1) supplemented with 20 ng/mL mouse epidermal growth factor (EGF), N-2, B-27, penicillin/streptomycin, and L-glutamine.
To test the response of NSCs cultured near but not directly on or within hydrogels with a CNTF delivery component, NSCs were seeded as neurospheres in chamber slides at a concentration of 5×10^5 cells/mL. A hydrogel containing acrylated nanoparticles encapsulating an estimated 10 ng of CNTF was added to the culture medium. In other experiments a hydrogel containing either blank (BSA-only) nanoparticles, no nanoparticles, or unencapsulated CNTF at 10 ng/mL was added, and no hydrogel was added in the negative control. Throughout the seven days of the experiment, the migration of NSCs out of the neurospheres was measured using the fluorescence of the GFP NSCs. At the end of seven days, all hydrogels were removed. Cells were fixed for analysis in 10% formalin for 1 hour and rinsed in 1× PBS. Differentiation was quantified by immunocytochemistry as described below.
Samples were blocked (3% normal goat serum, 5% BSA, 0.3% TritonX-100) for 1 hour, then rinsed and incubated with primary antibodies against mouse β-III-tubulin (B3T; Promega; 1:1000), mouse nestin (BD Biosciences; 1:200), rabbit glial fibrillary acidic protein (GFAP; Sigma; 1:160), rabbit oligodendrocyte transcription factor 1 (Olig1; Chemicon; 1:200), or caspase-3 (Sigma, 1:10) for 2 hours. They were then rinsed and incubated with species-specific Alexa Fluor 647 secondary antibodies (Molecular Probes; 1:200) for 1 hour, and rinsed again. Cells in chamber slides were also stained with DAPI (1:35000) for 5 minutes, rinsed again, and stored in 1× PBS at 4° C. […]
The slides were viewed using a Zeiss Axiovert 200 microscope with a Zeiss Mrc camera, and images were captured through Axiovert 4.0 software. Expression of each marker was quantified by the ratio of the area of fluorescence for each marker to the area of fluorescence for the GFP labeling. Results are expressed as mean±coefficient of variation.

B1: CNTF: Recombinant human ciliary neurotrophic factor with BSA carrier (R&D Systems) (protein, UniProt P26441 1-200, looked up)
Ciliary neurotrophic factor: MAFTEHSPLTPHRRDLCSRSIWLARKIRSDLTALTESYVKHQGLNKNINLDSADGMPVASTDQWSELTEAERLQENLQAYRTFHVLLARLLEDQQVHFTPTEGDFHQAIHTLLLQVAAFAYQIEELMILLEYKIPRNEADGMPINVGDGGLFEKKLWGLKVLQELSQWTVRSIHDLRFISSHQTGIPARGSHYIANNKKM
modifications: BSA carrier
For B1, the “migration of NSCs out of neurospheres” value (hydrogel added to culture medium) was “increased migration”, the GFAP expression (immunocytochemistry) was “upregulation of GFAP” and the nestin expression (immunocytochemistry) was “downregulation of nestin”.
